Measured values: IntAct's records for PubMed 29892012

B1: E3 ubiquitin-protein ligase LNX (Homo sapiens), Q8TBB1 (parent)
chain: MNQPESANDPEPLCAVCGQAHSLEENHFYSYPEEVDDDLICHICLQALLDPLDTPCGHTYCTLCLTNFLVEKDFCPMDRKPLVLQHCKKSSILVNKLLNKLLVTCPFREHCTQVLQRCDLEHHFQTSCKGASHYGLTKDRKRRSQDGCPDGCASLTATAPSPEVSAAATISLMTDEPGLDNPAYVSSAEDGQPAISPVDSGRSNRTRARPFERSTIRSRSFKKINRALSVLRRTKSGSAVANHADQGRENSENTTAPEVFPRLYHLIPDGEITSIKINRVDPSESLSIRLVGGSETPLVHIIIQHIYRDGVIARDGRLLPGDIILKVNGMDISNVPHNYAVRLLRQPCQVLWLTVMREQKFRSRNNGQAPDAYRPRDDSFHVILNKSSPEEQLGIKLVRKVDEPGVFIFNVLDGGVAYRHGQLEENDRVLAINGHDLRYGSPESAAHLIQASERRVHLVVSRQVRQRSPDIFQEAGWNSNGSWSPGPGERSNTPKPLHPTITCHEKVVNIQKDPGESLGMTVAGGASHREWDLPIYVISVEPGGVISRDGRIKTGDILLNVDGVELTEVSRSEAVALLKRTSSSIVLKALEVKEYEPQEDCSSPAALDSNHNMAPPSDWSPSWVMWLELPRCLYNCKDIVLRRNTAGSLGFCIVGGYEEYNGNKPFFIKSIVEGTPAYNDGRIRCGDILLAVNGRSTSGMIHACLARLLKELKGRITLTIVSWPGTFL
partner: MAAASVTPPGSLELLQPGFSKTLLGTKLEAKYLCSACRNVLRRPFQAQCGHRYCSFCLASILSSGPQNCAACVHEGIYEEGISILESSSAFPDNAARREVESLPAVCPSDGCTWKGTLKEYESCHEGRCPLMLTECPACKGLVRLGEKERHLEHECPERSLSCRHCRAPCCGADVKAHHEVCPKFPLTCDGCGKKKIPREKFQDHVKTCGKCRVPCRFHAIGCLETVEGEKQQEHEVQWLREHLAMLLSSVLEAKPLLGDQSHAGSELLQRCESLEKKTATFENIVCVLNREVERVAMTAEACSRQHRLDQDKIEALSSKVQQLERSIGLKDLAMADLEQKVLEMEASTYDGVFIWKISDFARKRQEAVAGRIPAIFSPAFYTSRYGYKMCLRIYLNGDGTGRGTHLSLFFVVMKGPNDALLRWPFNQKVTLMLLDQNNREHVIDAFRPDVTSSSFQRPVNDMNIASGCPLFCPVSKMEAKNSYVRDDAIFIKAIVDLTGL
B2: Glucosamine-6-phosphate deaminase 2 (Homo sapiens), Q8TDQ7 (parent)
chain: MRLVILDNYDLASEWAAKYICNRIIQFKPGQDRYFTLGLPTGSTPLGCYKKLIEYHKNGHLSFKYVKTFNMDEYVGLPRNHPESYHSYMWNNFFKHIDIDPNNAHILDGNAADLQAECDAFENKIKEAGGIDLFVGGIGPDGHIAFNEPGSSLVSRTRLKTLAMDTILANAKYFDGDLSKVPTMALTVGVGTVMDAREVMILITGAHKAFALYKAIEEGVNHMWTVSAFQQHPRTIFVCDEDATLELRVKTVKYFKGLMHVHNKLVDPLFSMKDGN
partner: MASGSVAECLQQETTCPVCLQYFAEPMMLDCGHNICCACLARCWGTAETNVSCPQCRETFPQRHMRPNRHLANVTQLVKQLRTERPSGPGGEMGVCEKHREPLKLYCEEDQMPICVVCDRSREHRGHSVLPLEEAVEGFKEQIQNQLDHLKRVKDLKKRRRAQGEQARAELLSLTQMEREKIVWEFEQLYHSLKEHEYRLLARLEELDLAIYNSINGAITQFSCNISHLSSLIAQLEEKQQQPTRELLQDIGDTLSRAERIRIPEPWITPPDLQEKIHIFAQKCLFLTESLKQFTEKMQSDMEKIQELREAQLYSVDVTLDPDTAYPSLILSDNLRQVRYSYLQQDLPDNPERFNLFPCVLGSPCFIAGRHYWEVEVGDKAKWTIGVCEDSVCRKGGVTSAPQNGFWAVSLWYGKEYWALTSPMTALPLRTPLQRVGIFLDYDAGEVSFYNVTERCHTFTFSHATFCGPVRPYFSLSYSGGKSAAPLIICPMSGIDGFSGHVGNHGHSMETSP
B3: Vasculin (Homo sapiens), Q86WP2 (parent)
chain: MAQHDFAPAWLNFPTPPSSTKSSLNFEKHSENFAWTENRYDVNRRRHNSSDGFDSAIGRPNGGNFGRKEKNGWRTHGRNGTENINHRGGYHGGSSRSRSSIFHAGKSQGLHENNIPDNETGRKEDKRERKQFEAEDFPSLNPEYEREPNHNKSLAAGVWEYPPNPKSRAPRMLVIKKGNTKDLQLSGFPVVGNLPSQPVKNGTGPSVYKGLVPKPAAPPTKPTQWKSQTKENKVGTSFPHESTFGVGNFNAFKSTAKNFSPSTNSVKECNRSNSSSPVDKLNQQPRLTKLTRMRTDKKSEFLKALKRDRVEEEHEDESRAGSEKDDDSFNLHNSNSTHQERDINRNFDENEIPQENGNASVISQQIIRSSTFPQTDVLSSSLEAEHRLLKEMGWQEDSENDETCAPLTEDEMREFQVISEQLQKNGLRKNGILKNGLICDFKFGPWKNSTFKPTTENDDTETSSSDTSDDDDV
partner: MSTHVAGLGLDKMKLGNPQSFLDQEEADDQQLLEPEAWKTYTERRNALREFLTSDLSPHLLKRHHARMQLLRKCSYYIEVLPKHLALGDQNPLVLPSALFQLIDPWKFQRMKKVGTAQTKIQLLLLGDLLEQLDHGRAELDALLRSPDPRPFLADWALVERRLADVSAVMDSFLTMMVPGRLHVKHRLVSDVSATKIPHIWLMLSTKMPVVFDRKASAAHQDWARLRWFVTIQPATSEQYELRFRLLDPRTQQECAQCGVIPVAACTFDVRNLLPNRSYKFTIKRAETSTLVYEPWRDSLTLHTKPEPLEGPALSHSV
B4: Zinc finger and BTB domain-containing protein 49 (Homo sapiens), Q6ZSB9 (parent)
chain: MDPVATHSCHLLQQLHEQRIQGLLCDCMLVVKGVCFKAHKNVLAAFSQYFRSLFQNSSSQKNDVFHLDVKNVSGIGQILDFMYTSHLDLNQDNIQVMLDTAQCLQVQNVLSLCHTFLKSATVVQPPGMPCNSTLSLQSTLTPDATCVISENYPPHLLQECSADAQQNKTLDESHPHASPSVNRHHSAGEISKQAPDTSDGSCTELPFKQPNYYYKLRNFYSKQYHKHAAGPSQERVVEQPFAFSTSTDLTTVESQPCAVSHSECILESPEHLPSNFLAQPVNDSAPHPESDATCQQPVKQMRLKKAIHLKKLNFLKSQKYAEQVSEPKSDDGLTKRLESASKNTLEKASSQSAEEKESEEVVSCENFNCISETERPEDPAALEDQSQTLQSQRQYACELCGKPFKHPSNLELHKRSHTGEKPFECNICGKHFSQAGNLQTHLRRHSGEKPYICEICGKRFAASGDVQRHIIIHSGEKPHLCDICGRGFSNFSNLKEHKKTHTADKVFTCDECGKSFNMQRKLVKHRIRHTGERPYSCSACGKCFGGSGDLRRHVRTHTGEKPYTCEICNKCFTRSAVLRRHKKMHCKAGDESPDVLEELSQAIETSDLEKSQSSDSFSQDTSVTLMPVSVKLPVHPVENSVAEFDSHSGGSYCKLRSMIQPHGVSDQEKLSLDPGKLAKPQMQQTQPQAYAYSDVDTPAGGEPLQADGMAMIRSSLAALDNHGGDPLGSRASSTTYRNSEGQFFSSMTLWGLAMKTLQNENELDQ
partner: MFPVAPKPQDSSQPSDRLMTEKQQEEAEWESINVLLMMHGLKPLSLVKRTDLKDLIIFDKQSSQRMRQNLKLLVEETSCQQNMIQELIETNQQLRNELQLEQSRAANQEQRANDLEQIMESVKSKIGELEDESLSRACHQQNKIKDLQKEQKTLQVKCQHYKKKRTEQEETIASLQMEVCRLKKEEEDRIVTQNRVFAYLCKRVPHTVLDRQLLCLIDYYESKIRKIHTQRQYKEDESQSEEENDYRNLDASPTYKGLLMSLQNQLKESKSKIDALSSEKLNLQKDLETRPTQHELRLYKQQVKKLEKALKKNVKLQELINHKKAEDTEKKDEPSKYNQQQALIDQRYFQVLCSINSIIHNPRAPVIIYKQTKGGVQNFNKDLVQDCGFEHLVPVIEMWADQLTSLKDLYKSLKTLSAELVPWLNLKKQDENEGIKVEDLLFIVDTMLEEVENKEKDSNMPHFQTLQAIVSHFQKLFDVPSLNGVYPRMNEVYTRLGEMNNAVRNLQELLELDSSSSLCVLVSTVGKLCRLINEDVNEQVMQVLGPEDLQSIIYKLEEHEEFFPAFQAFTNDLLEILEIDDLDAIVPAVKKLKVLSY

Variants of: B1
Details: with traf2_human TRAF2, Q12933

Variant	effect of a mutation on the interaction
E295K	disrupting interaction strength

Variants of: B2
Details: with tri27_human TRIM27, P14373

Variant	effect of a mutation on the interaction
MRLVILDNYDLASEWAAKYICNRIIQFKPGQDRYFTLGLPTGSTPLGCYKKLIEYHKNGHLSFKYVKTFNMDEYVGLPRNHPESYHSYMWNNFFKHIDIDPNNAHILDGNAADLQAECDAFENKIKEAGGIDLFVGGIGPDGHIAFNEPGSSLVSRTRLKTLAMDTILANAKYFDGDLSKVPTMALTVGVGTVMDAREVMILITGAHKAFALYKAVEEGVNHMWTVSAFQQHPRTIFVCDEDATLELRVKTVKYFKGLMHVHNKLVDPLFSMKDGN [I216V]	with no effect

Variants of: B3
Details: with fnd11_human FNDC11, Q9BVV2

Variant	effect of a mutation on the interaction
MAQHDFAPAWLNFPTPPSSTKSSLNFEKHSENFAWTENRYDVNRRRHNSSDGFDSAIGRPNGGNFGRKEKNGWRTHGRNGTENINHRGGYHGGSSRSRSSIFHAGKSQGLHENNIPDNETGRKEDKRECKQFEAEDFPSLNPEYEREPNHNKSLAAGVWEYPPNPKSRAPRMLVIKKGNTKDLQLSGFPVVGNLPSQPVKNGTGPSVYKGLVPKPAAPPTKPTQWKSQTKENKVGTSFPHESTFGVGNFNAFKSTAKNFSPSTNSVKECNRSNSSSPVDKLNQQPRLTKLTRMRTDKKSEFLKALKRDRVEEEHEDESRAGSEKDDDSFNLHNSNSTHQERDINRNFDENEIPQENGNASVISQQIIRSSTFPQTDVLSSSLEAEHRLLKEMGWQEDSENDETCAPLTEDEMREFQVISEQLQKNGLRKNGILKNGLICDFKFGPWKNSTFKPTTENDDTETSSSDTSDDDDV [R129C]	with no effect

Variants of: B4
Details: with cep70_human CEP70, Q8NHQ1

Variant	effect of a mutation on the interaction
D88V	with no effect
